Here are results for two molecules from US9758785B2, “miR-520 microRNAs sensitize cancers to platinum-based therapy” (BAYLOR COLLEGE OF MEDICINE, priority 2012, dated 2017).

Entries after “also recorded” stand apart in the source; their conditions may differ.

Common to all, as to type: cell-based, human
Data set [1] has as its system OVCAR8 cells. The experiment in a line: Viability (MTS) across cisplatin concentrations, stable microRNA clones. The method, then:
(§1) Established ovarian cancer cell lines were obtained from the ATCC (OVCAR8, OVCAR5) and the University of Texas M.D. Anderson Cancer Center (HEYA8, SKOV3ip1). All cell lines were maintained at 37° C. in RPMI 1640 media (Invitrogen, Carlsbad, Calif.) supplemented with 10% fetal bovine serums (Hyclone, Logan, Utah) and 1% penicillin/streptomycin (Gibco, Carlsbad, Calif.). MicroRNA mimics and mimic controls (Dharmacon, Lafayette, Colo.) were transiently transfected into actively growing cultures using Lipofectamine 2000 (Invitrogen, Carlsbad, Calif.). After a 24-hour incubation, transfected cultures were washed, passaged and seeded into 96 well plates. Proliferation and apoptosis were measured at 72, 96 and 120 hours after transfection using standard assays (Cell Titer 96 Aqueous One; Caspase Glo 3/7; Promega, Madison, Wis.). pLemiR expression vectors (Open Biosystems/Thermo, Huntsville, Ala.) were prepared according to manufacturer's instructions and transfected into cells using Fugene 6 (Roche, Indianapolis, Ind.). Following transfection, stable clones were selected using puromycin (Invitrogen) at doses optimized for each line. Rates of proliferation and apoptosis were examined in stable transfectants 24, 48, 72 and 96 hours after selected cells had been passaged and dispensed into 96 well plates. Viability was assessed across a clinically relevant range of cisplatin concentrations using an MTS assay (Promega). Cisplatin was obtained from Teva Pharmaceuticals (Irvine, Calif.).
(§2) For this reason, the inventors created clones of OVCAR8 and SKOV3ip1 ovarian cancer cell lines stably expressing either miR-520h (n=3) and miR-520a (n=3). […] To assess the impact of these microRNAs on cisplatin-induced cell killing, the inventors examined the viability of OVCAR8 and SKOV3ip1 cells stably expressing either microRNA incubated with clinically relevant concentrations of cisplatin. […] It should be noted that SKOV3ip1 cells tolerated only very low levels of miR-520a expression. The impact of cisplatin treatment on rates of apoptosis differed dramatically between the two cell lines.

Data set [2] has as its system SKOV3ip1 cells. The description is as above. On the procedure: as §1, §2
Data set [3] deals with OVCAR8 cells. In words: Proliferation assay (MTS, Cell Titer 96 Aqueous One). Particulars: OVCAR8, transient/acute mimic transfection vs non-silencing control, no cisplatin. On the procedure: as §1
Data set [4] has as its system OVCAR8 cells. In words: Apoptosis assay (Caspase Glo 3/7). The method, then:
as §1

The subject of data set [5] is SKOV3ip1 cells. In words: Apoptosis assay (Caspase Glo 3/7). On the procedure:
as §1

The test system of data set [6] is established ovarian cancer cell lines. The experiment in a line: Proliferation or apoptosis in established ovarian cancer cell lines after mimic transfection. Particulars: mimics vs control cultures; cell lines SKOV4, HEY, OVCAR8, OVCAR5. On the procedure:
as §1, with “Rates of proliferation and apoptosis were examined in stable transfectants 24, 48, 72 and 96 hours after selected cells had been passaged and dispensed into 96 well plates.” left out, “Cisplatin was obtained from Teva Pharmaceuticals (Irvine, Calif.).” left out

Consider `N.N.[Cl][Pt][Cl]` [cisplatin, reference compound], for which, in the data set on OVCAR8 cells [1] (OVCAR8 cells expressing a non-targeting mimic control), the “IC50 for cisplatinum in control cells” value amounted to 1.31 µg/mL. The “IC50 for cisplatin in control cells” value in the data set on SKOV3ip1 cells [2] (SKOV3ip1 cells expressing the non-silencing control) worked out at 0.43 µg/mL.

B1: hsa-mir-520a MI0003149 (nucleic acid, listed as Homo sapiens)
chain: CUCAGGCUGUGACCCUCCAGAGGGAAGUACUUUCUGUUGUCUGAGAGAAAAGAAAGUGCUUCCCUUUGGACUGUUUCGGUUUGAG
modifications: expressed or natural sequence
notes: seed 5'aagugcu; mimic or stably expressed
On to B1, for which the “Sensitization to cisplatin (viability)” value is reported as “sensitized” with OVCAR8 cells [1] (OVCAR8 stable clones vs non-silencing mimic, cisplatin <5 μg/mL) and “appeared to sensitize” in the data set on SKOV3ip1 cells [2] (SKOV3ip1 stable clones vs non-silencing mimic). The Proliferation entry in the data set with OVCAR8 cells [3] is “decreased proliferation only in OVCAR8 cells”. Also, the “Apoptosis (caspase 3/7)” value with OVCAR8 cells [4] (OVCAR8, transient/acute mimic transfection vs non-silencing control, no cisplatin) was “decreased rates of apoptosis”; in the data set on SKOV3ip1 cells [5] (SKOV3ip1, acute mimic transfection, no cisplatin), “decreased rates of apoptosis”. Also, the “Apoptosis in presence of cisplatin” value with OVCAR8 cells [4] (OVCAR8 stable clones, cisplatin up to 10 μg/mL) is recorded as “significantly decreased; also recorded: significantly lower rates of apoptosis”; in the data set on SKOV3ip1 cells [5] (SKOV3ip1 stable clones, cisplatin treatment), “significantly increased”. For the same molecule, in data set [6], the “Impact on proliferation or apoptosis” value is on record as “impacted proliferation and/or apoptosis in some but not all”.
